Assay: soluble fraction after stress (log2 fold change); higher = more stays soluble; pooled small domains, quantitative proteomics
Conditions: stress: pH 4
Procedure, shortened: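 Aggregation propensity is estimated from the fold change in each domain's soluble amount after acid stress. Pooled small-domain libraries were stressed at pH 4, and higher log2 values mean more stayed soluble.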

Sequence	soluble fraction (log2)
HMITGREMDVLEALWSSEKPLVASDIPKMKPSLSISSVQLALRNLVKKKLVEVADIVYSGTVLSRSYRP	-0.477
HMSKGKNEVIAYLKAHNDHRLTVAEILDGLKEEGISINRSTIYRNLDKLVENGDILAFKGKDSESAFYQYS	-0.643
HMEIYELTDQEQRVLEFIGEGMTNREIAKNMFLAEKTVKNYVSSLLRKLGLERRTQAAAMAVRLSV	-0.988
HMIGELVVEDLAAASEINVDTIRYYQRLGLLEPPRRRGRRAVYDHTHLERLAEIRRLAGAGFTLAQIGRLK	-1.23
HMRQQLAEILQKAVDNLPEAQRLVWLLRDKSDMTFKEIAEDLQLTEANVRVLLHRARLKLLAVINQYEE	-0.115
HMEEEEITIHIIGEVKYPGIVILKTGQRIIDAIDAAGGETEEADLNKINLAQLLSDGDKIYVPSINDN	-1.05
HMPQETPIPKSEIQSYDEIWLEPISTDNILRNELRGWYHVKDRWVENEFGNRFYLDTYASKWLAFPS	-0.752
HMSDRQLKRQANILYTTRKLASKVGYDGLTMRGLAEASEVSPKTLYNLFSSKDELLAAALEDLVGIV	0.0711
HMNELGSLIKRKREELGLSQEELARILGYKHKSSINKIELGLADVPRTKVPAFAKALGMTPVEFS	0.063
HMEDEVYFVPSPASRFNPWIAALASRRVPYRVEYDGAERRIAVPAGYAEKAGEELAAYERINHAWPR	-0.111
HMIAVLEEGSHFRAVNDVTGKPFGPEMVIKNGQVTAVGKTISTKPKNLLGKKEGTKFVISGKQYVIKDI	-0.103
HMEKIDYLSIGHRLRAYRIASSLKAEDVAESLGISRAAVYRLEKGEIVKIETLDNLARLLNTSLSSLLG	-1.3
HMNLDVEQIKKEALNQLIEIGNENDGIVTIKDFKKIDDISSLDEDDIEDIRNLLIENNIEIFE	-0.641
HMKPVTVINFVGMTEEKAMTEAEKLGLVVGASSSEYSDEPAGTVIRQSISVSTEAKTGDNIYFTVSKGPE	-0.416
HMYRLSPSWRIVERDDGFEIYGGDDARFQLDPSPLVSRLAAGDAVTRDGLDPTGAIEFEQLLSAGMIRPEI	-0.829
HMRDPFDALSARERAVASLVQRGLRNKEVASELGLTEGTVKVHLHKVFDKLGIRGRTELILLAQER	-0.397
HMEEPEYELLRQAVLALPEKYRLPIHLYYYEEYSVREIAEILQRKESAVQTQLQRGREKIRRSLTEKGVS	-0.941
HMSRMGDSIKSLRSRNNMSQDALAEKLNVTRQAISNWENSKTQPDADTLKNLGIIFNVTVDEIINNDF	-0.587
HMSNTGDIIRKLREESGVTAKELAHRIGLSASQMSRLESGKRRINSEVLTRIARALEVAPSQLID	0.17
HMDAMMQRLERLKELASSADGSKDYLILGPLRRDLAKLMALEDPKLRQGAEELDRKILAILS	-0.437
HMTMTKELGQRIRAERTARKMTQEELAERADLHPTYIGQVERGEKSLTIASLEKIVEGLGISFSDLFEN	-0.0395
HMSTLTLTSGTYAVGENIKAGKYTIMGSGSIAISSSGKARVNSNLTADRKDYVLNDDETIKIKGKAQFIPI	0.0425
HMQRYVVDENLKLDKKDINHIINVMRLNVNDQIKLINNGTIYDAIITKIEKNNVLYEIIKKEESK	-0.809
HMDIDASEVRGIISQYINEPDGRVSYILETIQKKYRYLPEEAIRIVAQELEVPLTQLFGVATFYAAFSL	0.0192
HMSSVMMPDLTGESAIVAMERLQQLGLLPKVEEVDSYREPGIVLEQLPRAGEKIKRGRIAILKVSS	-0.131
HMKSVLDDVAGLGPVRKKALLKAMGGFTRLRAASLDDILAVRAVPEEVAREVFAVLAQYNSVRNNDISE	≥ 0.43

Sequence	soluble fraction (log2)
HMVDWTFPVLVKDVVMMGRYGHMGFLRIPGKKDFESVDNALAKVGMVEYAKQQIGELSGGQR	-0.0255
HMGPDALSIGRRVRQVRTARGMTLDELAAAVSRAPSQLSMIETGKREPKLSLLQAIARALGTTIDALLT	0.126
HMIKVASVDGASDELAHEIREIMPLDFPVSYFDLDIKYLHKVLNDIPAVESAAIKVTVSGVLQIDISER	0.248
HMLAEEDRRRAERPGLDGNAVMVHLGIGPGRHVGEALAFLLEVRRSEGDLAVAELKSRIDAWWADR	-1.49
HMKALYHQLVDLLKKRMESGMIPHDKLPSERELTAQYGVSRTTVRLALQELENTGYIYRRHGKGTFVSDI	0.1
HMDIYKKFIIPATYFGSRLDHVLSELLPELSRSKIQNMIKQNLVMINGNHAAQKQKVVGDEEIIIKDI	-0.089
HMGVENDGYVLPRELKKGDTVLIADLGKEATVLSPVDRNGNVEVLAGAAKTRVKLKNLRLIE	0.179
HMAMYYVIGGDGQQYGPIDEATVRGWLGEGRVSAASLSFKTGEAQWIPLRDRPELADVLATA	-0.311
HMEEFAGYINGQPYYGPTHQHRGVKMVGAEHTQRPHPLVWDSVAKSLDNYDNRFQWVNGNLLQVV	0.3
HMNEISFYPNPAKESLTVKGLSEITSYSISDINGKLIQYGTTFDRINLEKLTKGFYFLTIGNTISKKLIV	-0.0595
HMELDFLRLQIITGIHSGRLSNNEILMMYDTYSQKGGNSYVSRIVNDYVDENNIKEEGKRNARK	-0.636
HMDSQKKNETLSSTADEIIKNYAGKRDLSEESMEQLEQFQKDMRGADVNIFTAAQIRMLDQIFQENLH	0.0679
HMPQLSNEEQKIVDALEGSDGKQINLITVETNIPMARLMSVLFEMEMRGIVKSLNGARYKLN	-0.026
HMQMSDTAAIGKIVDEVFAENPAALEDYAKGKTNVVDWLTGQVMKKSRGQANPGIASELVQKRLADF	0.101
HMGPGSYVVNVKPYAYVSINGRDYGRTPVGPIRLDPGTYKVVFTHEHRPSFSRTIVVEAGRETFETFPYPG	-0.107
HMGRYVIQIASFSSKNNAIEAADKLGGFVVQSGRFYRVRTGPFATRGEADAALASARRVGYRDAFIDTS	-0.233
HMSEKLLTLNEISEKLRVSRHTVQAWVSPSSPNHRPEFSSLARHAGRKTVFLESDVDAWLAQRR	-0.385
HMERDVNQLTPRERDILKLIAQGLPNKMIARRLDITESTVKVHVKHMLKKMKLKSRVEAAVWVHQERI	0.0307
HMVDKNDLTAIDGIGPFLEKKLNDVGVFTYADIAGWDAAKIEEITQQISFFEGRIEKDDWVGQAQKLIDDQ	-0.704
HMLILTWNYPYEYPMMMRSFLQEIGISRTFLAHIKSNGELLINGRHEIVLKTLQPGDVLTMVIPPSG	-0.78
HMGEELIEIQNLRNKERREAEAILKNLDLVPVIQEQFDDTVPINRVITTDPGPDSTVKKGTTVMIYVSKGP	0.289
HMEKRRQEIVELVKRESEISFAELKQHFPEVSEVTLRKDLKYLDSTLQIIRIHGGAKSLPAAI	-0.582
HMIDPHGSLTLDLRPRDARVEIIDSNKTYKPGVRLPMGEYAIAVSRRGYISETKRINIEYGDNRERVAL	-0.00328
HMSDKTSLTDDDKALINSMLPDYDKYPSVAKLQAVEIAKSSSKMATLLMLDERYNETVSEALE	-1.14
HMYQNRLFYTLKTGETVADLSKSQDINLSTIWSLNKHLYSSESEMMKAAPGQQIILPLKKLP	0.135
HMRKAERHLLIKQVIDEFTIRTQEELLAKLSDYGVNATQATISRDIRDLKIVKAPDENGISRFVFF	-0.358

Sequence	soluble fraction (log2)
HMNSKSDDELLSKTTSLLIHAAKIDENYTDKEKEIIKKTLIQLGVKESKADQIMLTAEINEE	-0.36
HMEYREFEAMTIRAIATLPPTQGHVIMLSRFEGLDNKEIALRLNLSLQTVKNTLTQGLKELKNKMRKLP	-0.119
HMSMANKKDFILDTAQKLFMEQGFDQTSISQILEATQIARGTLYYYFSSKEEIMDAIIERTIEQ	-1.81
HMAGQWQQDQNGWKYKTDNGDHMKNTWYQDSDSRWYYFGPDGYMKSSTMTPDGYVVGSDGAWIE	-1.63
HMDFRQALNTSADSDANKVALLESIVKGKYVSSTVNLLRRVITLRRGRSIDATLAAYSHYVSIR	0.385
HMAESLHVTAAALFEGRAMLGIDGSRRLLRVGETSPEGVKLVSATAREAVIEIDGRRQTLAPGRDT	0.0589
HMYGHKLDSYESYVVSELRRWPFLSAPQIHDRLKEHFSDLPLVTPKTVFNFVNRLRLTHSLPKE	-0.215
HMKPATSITFIPSERPDLVEQLSKITFDKKDSLYENYINLNWLTFEAISVYMREGDIIGFST	-0.305
HMEKAYVWTDTRTFDVQNYIGKKKSEVKNDQYGFEFLGEGDYVIDQLPRVGEQIEEGQKVKIMLGNQQEI	0.117
HMQISDTSELEAVVQDILKANMDVVAKIKAGKTNSANFLMGQVMKLTKGRAKPDTVLQLILDAVKQ	-0.374
HMDNLATRILKELNNNDGFLPLSDKSQPEAIYQAFGISKKSYKTAIGTLYKKRLITISENGIQLTD	-0.2
HMTSLTDDELSVVMLVREREISFDEITSETGFDAARLNSVLTMLKIKGIIDETTGKHYRISGGA	-0.492
HMALEVPGIAKDKIYRIFGQLYERQQKWEDAIDYYNRAVFFTLSGTDMILYQEDLSRVKQKISL	-0.152
HMQETILFGQQKAINNLSSDTGLSENDLDSYLKKRYKKPLYQLTQSEGADIINGFQDGSLSKNSILDYIKP	0.22
HMTLALKQGSTGSTVKQVQQKLKNWGYYSGAVDGIFGSGTRKAVVLFQKRNKLTADGIVGSKTLEALGIYV	0.0782
HMSYKYYSTERPLMPGSFPKPQGNTVLNIENFNDRSYVGKIGREAWGFIEYEKPISPVLLDDYELVAA	≥ 0.43
HMAYWVVKNNQVSLQINRSNYQITSTARALSNGNLGDEIDVKVLQSGVIKKAVVIGKGQVELLR	0.163
HMDEYILTLDEVKELLKSKDYDDLKNVLKWSNKFQKDTIIQTAISEKVSDANVINIIKEITGQDITSLIV	-1.12
HMQLPTPEDLKKRRNELGLTQSDLAKRAGVSQPLIARIESGDVDPRLSTVRKILDAFEEVEKEQQ	0.0627
HMDTFEITVEESDIDKRIDLFLAGNLESFSRSYIQDLIKKGKATISGKPVKANYRLREGDSVVLSIPKPK	-0.946
HMLPRLVLSPGTEVLATVMGKYENGMSLVKISSHLFAMDLPSRVQVGDSLRMTFLHQDARPTFALA	-0.142
HMNILAPFWERFGLSAFAAGNYDRAEGYFRKLEQKDPNSMSVLRNLGLILMAKGDAEGAEAYLLREEKL	-0.643
HMKLTESQLHKFTNDAVLAHIRNLIEFKGAFTEDDIEPIIRDRAAVYGIDLEDEDYKKVKTDVEYHFK	-1.53
HMVLGDQTFQSASAPKVFFGGDAAYGPKNIITAVAHGHDAAVSIDRFLHGEDVSKRPGPQVNLVS	0.207

— the domain aggregation screens of Martell et al. (2025)
